Reference: patent publication USRE48267E1, “Variants of C-type natriuretic peptide” (priority 2009, dated 2020)
Where a SMILES comes first, the peptide text is derived from it. Bridges are numbered along the chain shown (N, C = ends). Where no end group is shown, it is not given here. [ ]: non-standard residue; d: D form. The star is where a group is joined. CH3O(CH2CH2O)11CH2CH2CO = COCCOCCOCCOCCOCCOCCOCCOCCOCCOCCOCCOCCC(=O)*; PEO12 = PEO12, 0.6 kDa, monodispersed; PEO24 = PEO24, 1.2 kDa, monodispersed; Tle = CC(C)(C)[C@H](N)C(=O)O

Biological target: T1, NPR-B (natriuretic peptide receptor B), murine, expressed endogenously on NIH3T3 cells (murine, UniProt Q6VVW5 17-1047)
T1 sequence (looked up): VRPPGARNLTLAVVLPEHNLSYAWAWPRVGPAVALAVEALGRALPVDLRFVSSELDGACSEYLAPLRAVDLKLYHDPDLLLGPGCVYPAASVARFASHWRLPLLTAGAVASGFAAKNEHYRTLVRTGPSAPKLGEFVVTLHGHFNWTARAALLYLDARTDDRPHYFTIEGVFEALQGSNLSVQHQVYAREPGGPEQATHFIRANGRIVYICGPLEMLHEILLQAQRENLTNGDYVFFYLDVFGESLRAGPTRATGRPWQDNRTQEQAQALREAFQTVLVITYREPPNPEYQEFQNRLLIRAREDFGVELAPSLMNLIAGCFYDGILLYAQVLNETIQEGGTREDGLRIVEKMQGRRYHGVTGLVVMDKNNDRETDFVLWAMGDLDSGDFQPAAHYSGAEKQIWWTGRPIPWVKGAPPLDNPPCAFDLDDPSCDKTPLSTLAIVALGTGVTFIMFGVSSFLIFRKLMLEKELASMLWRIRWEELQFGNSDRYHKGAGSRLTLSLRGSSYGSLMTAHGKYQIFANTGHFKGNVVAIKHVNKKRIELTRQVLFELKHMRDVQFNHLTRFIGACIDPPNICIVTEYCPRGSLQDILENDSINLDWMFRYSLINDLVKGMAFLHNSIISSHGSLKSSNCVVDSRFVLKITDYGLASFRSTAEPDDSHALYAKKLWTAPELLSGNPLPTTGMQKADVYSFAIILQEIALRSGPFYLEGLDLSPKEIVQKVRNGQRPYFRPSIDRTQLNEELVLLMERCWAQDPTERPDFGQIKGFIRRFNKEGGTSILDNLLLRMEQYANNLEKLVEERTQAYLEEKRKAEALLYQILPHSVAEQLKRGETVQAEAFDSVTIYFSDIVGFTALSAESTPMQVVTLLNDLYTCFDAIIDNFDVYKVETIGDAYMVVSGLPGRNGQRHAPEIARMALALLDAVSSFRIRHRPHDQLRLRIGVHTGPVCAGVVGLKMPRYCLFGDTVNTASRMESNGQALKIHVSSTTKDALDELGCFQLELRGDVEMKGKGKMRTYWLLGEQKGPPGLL
Test: cell-based or functional assay
Settings: not given

Molecule	cGMP response rel. to 1 uM CNP22; 10 nM peptide, NIH3T3 cells	cGMP response rel. to 1 uM CNP22; 1 uM peptide, NIH3T3 cells
PEG2K-GANRRGLSRGCFGLKLDRIGSMSGLGC (ends and bridges not checked) [PEG2K-GANRR-CNP22, K4R]	15 rel. to 1 uM CNP22 (100)	45 rel. to 1 uM CNP22 (100)
PEO24-GANSSGLSRGCFGLKLDRIGSMSGLGC (ends and bridges not checked) [PEO24-GANSS-CNP22, K4R]	8 rel. to 1 uM CNP22 (100)	46 rel. to 1 uM CNP22 (100)
PEO12-GANSSGLSRGCFGLKLDRIGSMSGLGC (ends and bridges not checked) [PEO12-GANSS-CNP22, K4R]	8 rel. to 1 uM CNP22 (100)	52 rel. to 1 uM CNP22 (100)
PEG1K-GANRRGLSRGCFGLKLDRIGSMSGLGC (ends and bridges not checked) [PEG1K-GANRR-CNP22(K4R)]	15 rel. to 1 uM CNP22 (100)	56 rel. to 1 uM CNP22 (100)
PEO24-GANQQGLSRGCFGLKLDRIGSMSGLGC (ends and bridges not checked) [PEO24-GANQQ-CNP22, K4R]	16 rel. to 1 uM CNP22 (100)	73 rel. to 1 uM CNP22 (100)
PEO12-ERGLSRGCFGLKLDRIGSMSGLGC (ends and bridges not checked) [PEO12-ER-CNP22, K4R]	20 rel. to 1 uM CNP22 (100)	92 rel. to 1 uM CNP22 (100)
PEO24-GLSRGCFGLKLDRIGSMSGLGC (ends and bridges not checked) [PEO24-CNP22, K4R]	15 rel. to 1 uM CNP22 (100)	56 rel. to 1 uM CNP22 (100)
PEO12-GLSRGCFGLKLDRIGSMSGLGC (ends and bridges not checked) [PEO12-CNP22, K4R]	13 rel. to 1 uM CNP22 (100)	44 rel. to 1 uM CNP22 (100)
PEO24-RGLSRGCFGLKLDRIGSMSGLGC (ends and bridges not checked) [PEO24-R-CNP22, K4R]	15 rel. to 1 uM CNP22 (100)	75 rel. to 1 uM CNP22 (100)
PEO24-ERGLSRGCFGLKLDRIGSMSGLGC (ends and bridges not checked) [PEO24-ER-CNP22, K4R]	6 rel. to 1 uM CNP22 (100)	60 rel. to 1 uM CNP22 (100)
PEG2K-CFGLKLDRIGSMSGLGC (ends and bridges not checked) [PEG2K-CNP17]	5 rel. to 1 uM CNP22 (100)	50 rel. to 1 uM CNP22 (100)
PEO12-GANRRGLSRGCFGLKLDRIGSMSGLGC (ends and bridges not checked) [PEO12-GANRR-CNP22(K4R)]	40 rel. to 1 uM CNP22 (100)	99 rel. to 1 uM CNP22 (100)
PEO24-GANRRGLSRGCFGLKLDRIGSMSGLGC (ends and bridges not checked) [PEO24-GANRR-CNP22(K4R)]	28 rel. to 1 uM CNP22 (100)	82 rel. to 1 uM CNP22 (100)
PEO12-RGLSRGCFGLKLDRIGSMSGLGC (ends and bridges not checked) [PEO12-R-CNP22, K4R]	23 rel. to 1 uM CNP22 (100)	93 rel. to 1 uM CNP22 (100)
PEO12-GANQQGLSRGCFGLKLDRIGSMSGLGC (ends and bridges not checked) [PEO12-GANQQ-CNP22, K4R]	30 rel. to 1 uM CNP22 (100)	78 rel. to 1 uM CNP22 (100)

Biological target: Recombinant human NEP (Homo sapiens, UniProt P08473)
Sequence (P08473 whole entry): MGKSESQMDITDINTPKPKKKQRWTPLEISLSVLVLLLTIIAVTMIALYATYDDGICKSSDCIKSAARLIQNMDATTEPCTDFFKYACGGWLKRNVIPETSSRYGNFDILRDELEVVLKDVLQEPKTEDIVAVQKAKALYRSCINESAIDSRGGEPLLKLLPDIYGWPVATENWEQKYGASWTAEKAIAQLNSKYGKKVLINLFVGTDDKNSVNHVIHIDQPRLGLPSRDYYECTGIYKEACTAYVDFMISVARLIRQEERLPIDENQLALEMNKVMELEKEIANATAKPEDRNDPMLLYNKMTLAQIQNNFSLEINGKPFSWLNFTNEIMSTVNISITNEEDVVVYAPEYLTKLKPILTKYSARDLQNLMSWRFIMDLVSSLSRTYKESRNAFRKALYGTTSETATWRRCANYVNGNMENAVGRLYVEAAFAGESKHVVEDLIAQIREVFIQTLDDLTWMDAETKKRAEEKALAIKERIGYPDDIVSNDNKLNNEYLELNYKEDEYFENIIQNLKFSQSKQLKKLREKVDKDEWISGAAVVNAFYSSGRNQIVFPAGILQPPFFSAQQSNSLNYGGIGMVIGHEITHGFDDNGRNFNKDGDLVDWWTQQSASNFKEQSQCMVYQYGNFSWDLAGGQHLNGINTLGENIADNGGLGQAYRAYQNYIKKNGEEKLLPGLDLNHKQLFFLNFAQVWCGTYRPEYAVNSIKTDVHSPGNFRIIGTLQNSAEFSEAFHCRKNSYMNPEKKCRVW
Test: in vitro NEP cleavage assay (disappearance of non-cleaved CNP variant)
Settings: not given
Experimental: To determine the effects of amino acid substitutions, amino acid extensions, backbone modifications, side chain modifications and PEGylation on the susceptibility of CNP variants to neutral endopeptidase (NEP) cleavage, peptide cleavage assays were carried out using an in vitro assay that monitored disappearance of the non-cleaved CNP variant.
Recombinant human NEP (1 ug/mL final concentration) was added to 100 uM CNP variant diluted in 0.1 M Tris, pH 7. The reaction mixture was incubated at 37° C. for various periods of time, and the reaction was quenched with EDTA (10 mM final) followed by heat denaturation. The reaction mixture was reduced and then the reaction products were analyzed using HPLC and mass spectroscopy. The half-life of the CNP variant was calculated based on the disappearance of intact CNP variant over time.

Molecule	resistance to NEP cleavage (in words)	resistance to cleavage at the Cys6-Phe7 bond relative to wtCNP22
CC[C@H](C)[C@@H]1NC(=O)[C@H](CCCNC(=N)N)NC(=O)[C@H](CC(=O)O)NC(=O)[C@H](CC(C)C)NC(=O)[C@H](CCCCN)NC(=O)[C@H](CC(C)C)NC(=O)CNC(=O)[C@H](Cc2ccccc2)NC(=O)[C@@H](NC(=O)CNC(=O)[C@H](CCCNC(=N)N)NC(=O)[C@H](CO)NC(=O)[C@H](CC(C)C)NC(=O)CNC(=O)[C@@H](N)CCCNC(=N)N)CSSC[C@@H](C(=O)O)NC(=O)CNC(=O)[C@H](CC(C)C)NC(=O)CNC(=O)[C@H](CO)NC(=O)[C@H](CCSC)NC(=O)[C@H](CO)NC(=O)CNC1=O [Analog AZ] (H-RGLSRGCFGLKLDRIGSMSGLGC-OH; disulfide 7-23)	most resistant to NEP degradation	
CC[C@H](C)[C@@H]1NC(=O)[C@H](CCCNC(=N)N)NC(=O)[C@H](CC(=O)O)NC(=O)[C@H](CC(C)C)NC(=O)[C@H](CCCCN)NC(=O)[C@H](CC(C)C)NC(=O)[C@H](C(C)(C)C)NC(=O)[C@H](Cc2ccccc2)NC(=O)[C@@H](NC(=O)CNC(=O)[C@H](CCCCN)NC(=O)[C@H](CO)NC(=O)[C@H](CC(C)C)NC(=O)CN)CSSC[C@@H](C(=O)O)NC(=O)CNC(=O)[C@H](CC(C)C)NC(=O)CNC(=O)[C@H](CO)NC(=O)[C@H](CCSC)NC(=O)[C@H](CO)NC(=O)CNC1=O [Analog F] (H-GLSKGCF[Tle]LKLDRIGSMSGLGC-OH; disulfide 6-22)		resistance or improved resistance
CC[C@H](C)[C@@H]1NC(=O)[C@H](CCCNC(=N)N)NC(=O)[C@H](CC(=O)O)NC(=O)[C@H](CC(C)C)NC(=O)[C@H](CCCCN)NC(=O)[C@H](CC(C)C)NC(=O)CNC(=O)[C@H](Cc2ccccc2)NC(=O)[C@@H](NC(=O)CNC(=O)[C@H](CCCNC(=N)N)NC(=O)[C@H](CO)NC(=O)[C@H](CC(C)C)NC(=O)CNC(=O)[C@H](CCCNC(=N)N)NC(=O)[C@H](CCCNC(=N)N)NC(=O)[C@H](CC(N)=O)NC(=O)[C@H](C)NC(=O)CN)CSSC[C@@H](C(=O)O)NC(=O)CNC(=O)[C@H](CC(C)C)NC(=O)CNC(=O)[C@H](CO)NC(=O)[C@H](CCSC)NC(=O)[C@H](CO)NC(=O)CNC1=O [Analog AY] (H-GANRRGLSRGCFGLKLDRIGSMSGLGC-OH; disulfide 11-27)	same lability to NEP hydrolysis as CNP22	
CC[C@H](C)[C@@H]1NC(=O)[C@H](CCCNC(=N)N)NC(=O)[C@H](CC(=O)O)NC(=O)[C@H](CC(C)C)NC(=O)[C@H](CCCCN)NC(=O)[C@H](CC(C)C)NC(=O)CNC(=O)[C@H](Cc2ccccc2)NC(=O)[C@@H](NC(=O)CNC(=O)[C@H](CCCCN)NC(=O)[C@H](CO)NC(=O)[C@H](CC(C)C)NC(=O)CNC(=O)CCOCCOCCOCCOCCOCCOCCOCCOCCOCCOCCOCCOCCOCCOCCOCCOCCOCCOCCOCCOCCOCCOCCOCCOC)CSSC[C@@H](C(=O)O)NC(=O)CNC(=O)[C@H](CC(C)C)NC(=O)CNC(=O)[C@H](CO)NC(=O)[C@H](CCSC)NC(=O)[C@H](CO)NC(=O)CNC1=O [PEO24-CNP22]	resistant to NEP degradation over the assay period of 160 minutes	
CC[C@H](C)[C@@H]1NC(=O)[C@H](CCCNC(=N)N)NC(=O)[C@H](CC(=O)O)NC(=O)[C@H](CC(C)C)NC(=O)[C@H](CCCCN)NC(=O)[C@H](CC(C)C)NC(=O)CNC(=O)[C@H](Cc2ccccc2)NC(=O)[C@@H](NC(=O)CNC(=O)[C@H](CCCNC(=N)N)NC(=O)[C@H](CO)NC(=O)[C@H](CC(C)C)NC(=O)CNC(=O)[C@H](CCCNC(=N)N)NC(=O)[C@@H]2CCCN2C(=O)[C@H](CC(N)=O)NC(=O)[C@H](C)NC(=O)CNC(=O)CCOCCOCCOCCOCCOCCOCCOCCOCCOCCOCCOCCOC)CSSC[C@@H](C(=O)O)NC(=O)CNC(=O)[C@H](CC(C)C)NC(=O)CNC(=O)[C@H](CO)NC(=O)[C@H](CCSC)NC(=O)[C@H](CO)NC(=O)CNC1=O [PEO12-GANPR-CNP22(K4R)] ({CH3O(CH2CH2O)11CH2CH2CO}-GANPRGLSRGCFGLKLDRIGSMSGLGC-OH; disulfide 11-27; C-terminus assumed)	same half-life as wtCNP22	

Same assay, conditions: 100 uM peptide, 1 ug/mL NEP, 0.1 M Tris pH 7, 37° C.; adjusted t1/2, CNP22 normalized to 80 min

Molecule	NEP Cleavage (t1/2, min)
CC[C@H](C)[C@@H]1NC(=O)[C@H](CCCNC(=N)N)NC(=O)[C@H](CC(=O)O)NC(=O)[C@H](CC(C)C)NC(=O)[C@H](CCCCN)NC(=O)[C@H](CC(C)C)NC(=O)CNC(=O)[C@H](Cc2ccccc2)NC(=O)[C@@H](NC(=O)CNC(=O)[C@H](CCCCN)NC(=O)[C@H](CO)NC(=O)[C@H](CC(C)C)NC(=O)CNC(=O)CCOCCOCCOCCOCCOCCOCCOCCOCCOCCOCCOCCOCCOCCOCCOCCOCCOCCOCCOCCOCCOCCOCCOCCOC)CSSC[C@@H](C(=O)O)NC(=O)CNC(=O)[C@H](CC(C)C)NC(=O)CNC(=O)[C@H](CO)NC(=O)[C@H](CCSC)NC(=O)[C@H](CO)NC(=O)CNC1=O [PEO24-CNP22]	>>160 min
